Test results: the Human Domainome abundance scans (Beltran et al. 2025)
± gives the uncertainty stated by the source.

B1: MEF2-activating motif and SAP domain-containing transcriptional regulator, residues 170 to 204; numbered along this chain, Q6ZN01 (parent)
chain: LKLEELTVSELRQQLRLRGLPVSGTKSMLLERMRG

Variants of: B1
Assay: abundance fitness (aPCA) (normalised: wild type 0, dead -1); higher = more abundant; growth selection in yeast, the domain comes from the species named
Settings: Homo sapiens

Variant	abundance fitness
G19S	-0.34 ± 0.065
G19C	-0.559 ± 0.092
G19A	-0.746 ± 0.08
G19K	-0.227 ± 0.086
G19T	-0.683 ± 0.11
G19R	-0.337 ± 0.066
G19F	-0.639 ± 0.14
G19E	-0.261 ± 0.072
G19P	-0.558 ± 0.29
G19I	-0.417 ± 0.19
G19H	-0.211 ± 0.16
G19V	-1.02 ± 0.1
G19W	-0.863 ± 0.092
G19Q	-0.402 ± 0.1
R18V	-0.128 ± 0.095
R18W	-0.147 ± 0.085
R18K	-0.119 ± 0.068
R18P	-0.336 ± 0.39
R18G	-0.523 ± 0.097
R18S	-0.206 ± 0.24
R18M	0.126 ± 0.071
R18T	-0.239 ± 0.12
R18L	0.074 ± 0.057
R18N	-0.299 ± 0.32

Variant	abundance fitness
R18A	-0.009 ± 0.085
R18Q	0.03 ± 0.24
R18E	-0.14 ± 0.052
L17F	-0.271 ± 0.15
L17V	-0.054 ± 0.14
L17T	-0.081 ± 0.11
L17P	-0.988 ± 0.15
L17C	-0.102 ± 0.16
L17E	-0.089 ± 0.066
L17W	-0.307 ± 0.089
L17G	-0.238 ± 0.069
L17Q	-0.032 ± 0.093
L17M	-0.087 ± 0.062
L17S	-0.249 ± 0.089
L17R	-0.155 ± 0.056
Q13H	0.054 ± 0.16
Q13A	-0.285 ± 0.11
Q13V	-0.11 ± 0.067
Q13I	-0.036 ± 0.099
Q13R	-0.23 ± 0.095
Q13M	-0.134 ± 0.097
Q13K	0.015 ± 0.079
Q13E	-0.1 ± 0.1
Q13G	-0.251 ± 0.061

Variant	abundance fitness
Q13W	-0.28 ± 0.072
Q13F	-0.101 ± 0.21
Q13S	-0.203 ± 0.074
Q13D	-0.075 ± 0.09
Q13L	-0.174 ± 0.061
Q13C	-0.163 ± 0.1
Q14V	-0.222 ± 0.061
Q14R	-0.174 ± 0.053
Q14G	-0.35 ± 0.063
Q14F	-0.401 ± 0.13
Q14T	-0.45 ± 0.16
Q14P	-0.863 ± 0.097
Q14D	-0.551 ± 0.07
Q14M	0.023 ± 0.063
Q14W	-0.141 ± 0.084
Q14K	-0.175 ± 0.35
Q14A	0.135 ± 0.084
Q14Y	-0.326 ± 0.25
Q14C	-0.313 ± 0.11
Q14N	-0.441 ± 0.14
Q14H	-0.192 ± 0.095
S9W	-0.142 ± 0.06
S9Y	-0.345 ± 0.082
L20Y	-0.284 ± 0.11

Variant	abundance fitness
L20V	-0.575 ± 0.071
L20T	-0.879 ± 0.13
L20K	-0.555 ± 0.11
L20G	-0.669 ± 0.067
L20F	-0.329 ± 0.14
L20A	-0.296 ± 0.075
L20E	-0.192 ± 0.055
L20M	-0.005 ± 0.22
L20Q	-0.587 ± 0.27
L20R	-0.914 ± 0.095
L20I	-0.646 ± 0.25
L20W	-0.626 ± 0.089
L20S	-0.731 ± 0.35
L11I	-0.206 ± 0.11
L11R	-0.565 ± 0.097
L11V	-0.59 ± 0.074
L11M	-0.331 ± 0.32
L11A	-0.678 ± 0.11
L11K	-0.623 ± 0.13
L11E	-0.864 ± 0.13
L11Q	-0.568 ± 0.1
L11F	-1.08 ± 0.34
L11W	-0.897 ± 0.11
L11H	-0.811 ± 0.16

Variant	abundance fitness
L11C	-1.03 ± 0.095
L11G	-0.657 ± 0.063
L11S	-0.542 ± 0.07
L11Y	-0.497 ± 0.091
L11P	-0.64 ± 0.12
R12Q	-0.016 ± 0.097
R12Y	-0.495 ± 0.21
R12V	-0.304 ± 0.1
R12D	-0.488 ± 0.11
R12S	-0.29 ± 0.087
R12G	-0.593 ± 0.076
R12P	-0.602 ± 0.096
R12L	-0.523 ± 0.074
R12N	-0.961 ± 0.49
R12M	-0.32 ± 0.13
R12T	-0.199 ± 0.11
R12C	-0.387 ± 0.086
R12K	-0.072 ± 0.09
R12A	-0.361 ± 0.11
L15E	-0.38 ± 0.099
L15R	-0.712 ± 0.063
L15D	-0.599 ± 0.14
L15N	-0.308 ± 0.14
L15S	-0.215 ± 0.091

Variant	abundance fitness
L15M	-0.185 ± 0.16
L15A	0.11 ± 0.068
L15T	-0.43 ± 0.089
L15V	-0.37 ± 0.073
L15Y	-0.661 ± 0.078
L15K	-0.361 ± 0.099
L15P	-0.6 ± 0.12
L15Q	-0.339 ± 0.096
L15W	-1 ± 0.16
L15C	0.149 ± 0.065
L15G	-0.391 ± 0.058
R16W	-0.129 ± 0.058
R16Q	-0.207 ± 0.18
R16D	-0.331 ± 0.09
R16S	-0.095 ± 0.066
R16Y	-0.613 ± 0.12
R16E	0.001 ± 0.078
R16F	-0.086 ± 0.26
R16G	-0.081 ± 0.054
R16L	-0.027 ± 0.067
R16K	0.284 ± 0.14
R16A	0.04 ± 0.062
R16M	-0.07 ± 0.062
R16P	-0.96 ± 0.13

Variant	abundance fitness
R16C	-0.107 ± 0.08
E10Q	-0.216 ± 0.14
E10M	-0.608 ± 0.11
E10S	-0.454 ± 0.072
E10D	-0.402 ± 0.15
E10K	-0.354 ± 0.14
E10C	-0.678 ± 0.085
E10R	-0.552 ± 0.072
E10A	-0.425 ± 0.1
E10F	-0.895 ± 0.39
E10G	-0.509 ± 0.12
E10W	-0.728 ± 0.11
E10T	-0.782 ± 0.17
E10I	-0.781 ± 0.5
P21M	-0.655 ± 0.23
P21G	-0.297 ± 0.048
P21E	-0.036 ± 0.068
P21K	-0.494 ± 0.082
P21A	-0.184 ± 0.075
P21H	-0.727 ± 0.22
P21F	-1.08 ± 0.26
P21D	-0.094 ± 0.059
P21C	-0.347 ± 0.096
